According to patent publication US20220125891A1 (OSAKA UNIVERSITY, published 2022):
Changes are numbered by the printed parent chain. Values belong to the binder of their own block, whether it stands above or below them.

Legend:
[1] = target: T1, full-length human Regnase-1 with a FLAG tag on the N-terminal side and a biotin ligase BirA recognition … (human, UniProt Q5D1E8 1-599, biotinylated where required ; Biotinylated at the BirA recognition sequence where required. That sequence is not in the letters.); experiment: flow cytometry of antigen-coated streptavidin beads
T1 construct: Expressed in Expi293 cells, purified on FLAG M2 agarose and by gel filtration; also called full-length Regnase-1; human full-length Regnase-1
T1 sequence: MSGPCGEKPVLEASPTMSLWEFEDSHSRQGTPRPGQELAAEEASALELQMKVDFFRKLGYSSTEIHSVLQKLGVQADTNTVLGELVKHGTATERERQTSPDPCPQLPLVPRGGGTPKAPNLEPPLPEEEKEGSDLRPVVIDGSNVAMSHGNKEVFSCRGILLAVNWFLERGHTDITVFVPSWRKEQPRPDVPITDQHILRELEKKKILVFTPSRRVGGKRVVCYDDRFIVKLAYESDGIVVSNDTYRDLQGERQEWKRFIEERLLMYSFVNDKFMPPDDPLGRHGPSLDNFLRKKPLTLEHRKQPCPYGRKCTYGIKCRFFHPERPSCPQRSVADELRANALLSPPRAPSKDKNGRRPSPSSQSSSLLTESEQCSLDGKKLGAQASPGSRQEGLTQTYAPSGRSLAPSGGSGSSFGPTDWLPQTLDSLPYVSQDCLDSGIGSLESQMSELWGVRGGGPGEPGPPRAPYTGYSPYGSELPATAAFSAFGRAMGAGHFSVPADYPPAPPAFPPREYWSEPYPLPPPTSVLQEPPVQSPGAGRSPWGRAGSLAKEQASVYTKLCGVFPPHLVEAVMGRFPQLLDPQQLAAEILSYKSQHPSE

[2] = target: T2, Peptide 1 (CLDSGIGSLESQMSELWGVRGG), biotin-conjugated (human, biotin-conjugated); experiment: as above
T2 construct: also called human Regnase-1 peptide
T2 peptide: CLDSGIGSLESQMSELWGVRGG

binding result [1]: binds
binding result [2]: binds
B1: REA0023 (antibody, V domains shown)
VH: QSLEESGGDLVKPGASLTLTCTDAGFSFSGVYWMHWVRQAPGKGLEWIACINAGSSGSTYYASWAKGRFTISKPSSTTVTLQMTSLTVADTATYFCARSFTLWGPGTLVTVSS
VL: AVVTQTPSSVSAAVGGTVTIKCQSSQSVGNNNYLAWFQQKPGQPPKLLIYSASTLASGVPSRFSGSGSGTQFTLTISGVQCDDAATYYCLGGYDGDGEAFYVFGGGTEVVVKG
notes: Rabbit antibody gene expressed in HEK293 cells, purified by Protein A; also called anti-Regnase-1 antibody; anti-non-phosphorylated Regnase-1 peptide antibody

binding result [1]: binds
binding result [2]: binds
B2: REA0027 (antibody, V domains shown)
VH: B1 VH with D23A, A24S, S27G, G30S, V31S, G57T, S58K, R98W, T101N
VL: B1 VL with Y33W
notes: as for B1
